Experimental data as given in article PMC6818353, “Diversified Application of Barcoded PLATO (PLATO-BC) Platform for Identification of Protein Interactions” (Genomics, Proteomics & Bioinformatics, 2019).

Biological target: T1, N-terminal biotinylated ubiquitin (UniProt P0CG48 1-76, biotin on the N-terminus)
T1 construct: also called Bio-Ub; free ubiquitin peptide; source: bought: BostonBiochem (Catalog No. UB-570)
Experiment: pull-down; 5 μg His-tagged protein incubated with 1 μg biotinylated molecule (H4ac peptide or Ub) in 50 mM Tris pH 7.5, 150 mM NaCl, 0.1% NP-40, 2 h at 4 °C; captured on streptavidin-coated beads; immunoblot with anti-V5
Conditions: both partners purified

B1: V5-His6-tagged RIOK3 protein, purified from E. coli (natural protein, human, UniProt O14730 1-519, looked up)
chain: MDLVGVASPEPGTAAAWGPSKCPWAIPQNTISCSLADVMSEQLAKELQLEEEAAVFPEVAVAEGPFITGENIDTSSDLMLAQMLQMEYDREYDAQLRREEKKFNGDSKVSISFENYRKVHPYEDSDSSEDEVDWQDTRDDPYRPAKPVPTPKKGFIGKGKDITTKHDEVVCGRKNTARMENFAPEFQVGDGIGMDLKLSNHVFNALKQHAYSEERRSARLHEKKEHSTAEKAVDPKTRLLMYKMVNSGMLETITGCISTGKESVVFHAYGGSMEDEKEDSKVIPTECAIKVFKTTLNEFKNRDKYIKDDFRFKDRFSKLNPRKIIRMWAEKEMHNLARMQRAGIPCPTVVLLKKHILVMSFIGHDQVPAPKLKEVKLNSEEMKEAYYQTLHLMRQLYHECTLVHADLSEYNMLWHAGKVWLIDVSQSVEPTHPHGLEFLFRDCRNVSQFFQKGGVKEALSERELFNAVSGLNITADNEADFLAEIEALEKMNEDHVQKNGRKAASFLKDDGDPPLLYDE
notes: also called V5-fused RIOK3; pET-DEST42-RIOK3; source: E. coli DE3 strain, purified
B1: binds.
